The target of this assay is Siglec-9, Siglec-10, and Siglec-14. Put plainly: BLI; Fc-fusions of the Siglec proteins immobilised on Protein A biosensors (ForteBio) at 5 µg/mL; PTGFRN extracellular domain in 2-fold serial dilutions starting at 100 µg/mL; equilibrium dissociation constants calculated with ForteBio Data Analysis software v. 10.0.

B1: extracellular domain of PTGFRN (aa 26-832) with a C-terminal histidine tag (domain or fragment)
chain: VPTATLVRVVGTELVIPCNVSDYDGPSEQNFDWSFSSLGSSFVELASTWEVGFPAQLYQERLQRGEILLRRTANDAVELHIKNVQPSDQGHYKCSTPSTDATVQGNYEDTVQVKVLADSLHVGPSARPPPSLSLREGEPFELRCTAASASPLHTHLALLWEVHRGPARRSVLALTHEGRFHPGLGYEQRYHSGDVRLDTVGSDAYRLSVSRALSADQGSYRCIVSEWIAEQGNWQEIQEKAVEVATVVIQPSVLRAAVPKNVSVAEGKELDLTCNITTDRADDVRPEVTWSFSRMPDSTLPGSRVLARLDRDSLVHSSPHVALSHVDARSYHLLVRDVSKENSGYYYCHVSLWAPGHNRSWHKVAEAVSSPAGVGVTWLEPDYQVYLNASKVPGFADDPTELACRVVDTKSGEANVRFTVSWYYRMNRRSDNVVTSELLAVMDGDWTLKYGERSKQRAQDGDFIFSKEHTDTFNFRIQRTTEEDRGNYYCVVSAWTKQRNNSWVKSKDVFSKPVNIFWALEDSVLVVKARQPKPFFAAGNTFEMTCKVSSKNIKSPRYSVLIMAEKPVGDLSSPNETKYIISLDQDSVVKLENWTDASRVDGVVLEKVQEDEFRYRMYQTQVSDAGLYRCMVTAWSPVRGSLWREAATSLSNPIEIDFQTSGPIFNASVHSDTPSVIRGDLIKLFCIITVEGAALDPDDMAFDVSWFAVHSFGLDKAPVLLSSLDRKGIVTTSRRDWKSDLSLERVSVLEFLLQVHGSEDQDFGNYYCSVTPWVKSPTGSWQKEAEIHSKPVFITVKMDVLNAFKYP
B1: the Kd (in general, the concentration at which binding is half-saturated) is 700 to 4000 nM.

Values taken from paper PMC8062530.
